Reference: patent US20200262877A1, “ION CHANNEL-BINDING PEPTIDES AND METHODS OF USE THEREOF” (priority 2017, published 2020)

Experiments:
5HT3a = target: T1, 5HT3a (Homo sapiens, UniProt P46098); assay: Ion channel panel (IonWorks Barracuda): 5HT3a; assay type: cell-based
T1 construct: host or cells: HEK293 or CHO
T1 sequence (P46098 whole entry, looked up): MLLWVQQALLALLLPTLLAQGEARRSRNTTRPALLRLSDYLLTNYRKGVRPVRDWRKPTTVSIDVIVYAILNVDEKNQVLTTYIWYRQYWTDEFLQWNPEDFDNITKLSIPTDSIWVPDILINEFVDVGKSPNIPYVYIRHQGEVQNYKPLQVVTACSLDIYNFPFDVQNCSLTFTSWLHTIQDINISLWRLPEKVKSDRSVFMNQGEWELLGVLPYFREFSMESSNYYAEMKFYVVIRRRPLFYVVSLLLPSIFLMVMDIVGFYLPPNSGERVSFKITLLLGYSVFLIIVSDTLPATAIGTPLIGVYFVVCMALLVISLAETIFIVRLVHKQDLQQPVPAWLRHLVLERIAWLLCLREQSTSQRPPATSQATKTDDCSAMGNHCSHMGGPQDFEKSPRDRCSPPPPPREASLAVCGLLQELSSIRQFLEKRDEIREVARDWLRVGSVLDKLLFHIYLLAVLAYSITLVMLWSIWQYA
How it was run: (§1)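 Peptides were tested in duplicate at final 20 μM and 200 nM, with concentration set by amino acid analysis, in HEPES-buffered saline. They were applied for at least 5 min to HEK293 or CHO cells transfected with each channel. Currents were expressed as % inhibition, 1-(Ipeptide/Icontrol)×100, or % activation, Ipeptide/Icontrol×100, against a channel-matched reference compound.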

α3β4 = target: T2, α3β4 (Homo sapiens, UniProt P30926+P32297); assay: Ion channel panel (IonWorks Barracuda): α3β4; assay type: cell-based; details: 100% = no change, <100% = inhibition
T2 construct: host or cells: HEK293 or CHO
How it was run: as §1

α4β2 = target: T3, α4β2 (Homo sapiens, UniProt P17787+P43681); assay: Ion channel panel (IonWorks Barracuda): α4β2; assay type: cell-based; details: 100% = no change, <100% = inhibition
T3 construct: host or cells: HEK293 or CHO
How it was run: as §1

Cav2.1 = target: T4, Cav2.1 (Homo sapiens, UniProt O00555); assay: cell-based; details: 100% = no change, <100% = inhibition
T4 construct: host or cells: HEK293 or CHO
How it was run: as §1

Cav2.2 = target: T5, Cav2.2 (Homo sapiens, UniProt Q00975); assay: cell-based; details: 100% = no change, <100% = inhibition
T5 construct: host or cells: HEK293 or CHO
How it was run: as §1

Kv2.1 = target: T6, Kv2.1 (Homo sapiens, UniProt Q14721); assay: cell-based; details: 100% = no change, <100% = inhibition
T6 construct: host or cells: HEK293 or CHO
How it was run: as §1

GABA = assay: Ion channel panel (IonWorks Barracuda): GABA; assay type: cell-based; details: 100% = no change, <100% = inhibition
How it was run: as §1

Nav1.5 = Nav1.5 (Homo sapiens, UniProt Q14524); assay: in vitro; details: 100% = no change; for Activity of Nav1.5 with peptide, expressed as a percentage of the reference compound: peptide at 0.2 μM; for Activity of Nav1.5 with peptide (percentage of the reference compound): peptide at 20 μM
Sequence of Nav1.5 (Q14524 whole entry): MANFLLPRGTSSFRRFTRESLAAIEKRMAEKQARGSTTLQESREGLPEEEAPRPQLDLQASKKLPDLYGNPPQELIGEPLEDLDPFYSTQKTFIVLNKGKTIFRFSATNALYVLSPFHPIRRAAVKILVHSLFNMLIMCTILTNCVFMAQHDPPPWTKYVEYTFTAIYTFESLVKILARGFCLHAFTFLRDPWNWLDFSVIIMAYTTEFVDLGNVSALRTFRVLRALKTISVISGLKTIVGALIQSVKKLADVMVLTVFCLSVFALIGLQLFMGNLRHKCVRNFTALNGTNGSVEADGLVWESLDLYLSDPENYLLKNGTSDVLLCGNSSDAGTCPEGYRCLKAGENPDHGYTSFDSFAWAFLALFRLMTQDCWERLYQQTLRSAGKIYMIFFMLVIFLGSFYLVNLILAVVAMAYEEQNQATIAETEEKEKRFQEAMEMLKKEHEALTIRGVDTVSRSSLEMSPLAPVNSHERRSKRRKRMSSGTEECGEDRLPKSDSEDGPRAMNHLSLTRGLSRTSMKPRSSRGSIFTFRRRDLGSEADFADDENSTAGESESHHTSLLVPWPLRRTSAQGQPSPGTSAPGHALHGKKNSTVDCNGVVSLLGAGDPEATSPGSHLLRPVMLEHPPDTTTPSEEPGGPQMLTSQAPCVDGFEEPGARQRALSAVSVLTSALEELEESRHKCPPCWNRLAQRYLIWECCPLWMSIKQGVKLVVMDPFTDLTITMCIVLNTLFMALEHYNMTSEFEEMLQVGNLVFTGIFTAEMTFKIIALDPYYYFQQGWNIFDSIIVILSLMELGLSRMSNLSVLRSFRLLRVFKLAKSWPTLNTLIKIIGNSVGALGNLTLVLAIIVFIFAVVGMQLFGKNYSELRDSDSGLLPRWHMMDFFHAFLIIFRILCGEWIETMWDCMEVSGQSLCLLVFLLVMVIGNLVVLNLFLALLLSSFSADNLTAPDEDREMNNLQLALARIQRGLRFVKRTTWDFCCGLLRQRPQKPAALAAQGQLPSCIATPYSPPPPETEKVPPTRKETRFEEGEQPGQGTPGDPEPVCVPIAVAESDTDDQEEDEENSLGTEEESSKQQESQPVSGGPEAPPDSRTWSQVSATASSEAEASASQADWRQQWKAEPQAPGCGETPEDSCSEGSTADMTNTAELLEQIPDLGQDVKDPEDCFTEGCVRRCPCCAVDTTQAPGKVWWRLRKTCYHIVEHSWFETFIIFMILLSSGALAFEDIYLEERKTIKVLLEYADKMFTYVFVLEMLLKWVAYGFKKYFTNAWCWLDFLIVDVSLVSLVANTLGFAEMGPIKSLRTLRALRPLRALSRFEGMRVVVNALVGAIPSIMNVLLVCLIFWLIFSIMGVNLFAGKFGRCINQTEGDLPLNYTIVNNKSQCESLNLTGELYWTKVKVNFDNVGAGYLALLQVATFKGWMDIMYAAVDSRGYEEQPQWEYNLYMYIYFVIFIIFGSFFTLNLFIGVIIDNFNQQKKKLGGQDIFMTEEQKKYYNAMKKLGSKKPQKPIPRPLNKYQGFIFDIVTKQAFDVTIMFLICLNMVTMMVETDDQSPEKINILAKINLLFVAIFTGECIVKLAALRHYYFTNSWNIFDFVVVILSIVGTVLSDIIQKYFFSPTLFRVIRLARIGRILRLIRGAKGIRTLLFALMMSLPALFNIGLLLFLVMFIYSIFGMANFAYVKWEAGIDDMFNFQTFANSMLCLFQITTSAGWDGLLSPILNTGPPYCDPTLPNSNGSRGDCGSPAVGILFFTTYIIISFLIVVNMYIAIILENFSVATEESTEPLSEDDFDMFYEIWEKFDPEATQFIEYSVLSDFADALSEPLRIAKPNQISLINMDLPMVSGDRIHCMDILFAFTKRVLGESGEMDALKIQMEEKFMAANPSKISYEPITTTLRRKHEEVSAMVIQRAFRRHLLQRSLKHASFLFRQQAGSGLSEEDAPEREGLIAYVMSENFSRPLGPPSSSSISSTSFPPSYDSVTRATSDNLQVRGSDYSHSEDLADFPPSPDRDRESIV
How it was run: as §1

hERG = hERG (Homo sapiens, UniProt Q12809); assay: in vitro; details: 100% = no change, <100% = inhibition
How it was run: as §1

Kir2.1 = target: T7, Kir2.1 (Homo sapiens, UniProt P63252); assay: Ion channel panel (IonWorks Barracuda): Kir2.1; assay type: cell-based; details: 100% = no change, <100% = inhibition
T7 construct: host or cells: HEK293 or CHO
How it was run: as §1

Kv1.1 = target: T8, Kv1.1 (Homo sapiens, UniProt Q09470); assay: cell-based; assay type: cell-based; details: 100% = no change, <100% = inhibition
T8 construct: host or cells: HEK293 or CHO
T8 sequence (Q09470 whole entry): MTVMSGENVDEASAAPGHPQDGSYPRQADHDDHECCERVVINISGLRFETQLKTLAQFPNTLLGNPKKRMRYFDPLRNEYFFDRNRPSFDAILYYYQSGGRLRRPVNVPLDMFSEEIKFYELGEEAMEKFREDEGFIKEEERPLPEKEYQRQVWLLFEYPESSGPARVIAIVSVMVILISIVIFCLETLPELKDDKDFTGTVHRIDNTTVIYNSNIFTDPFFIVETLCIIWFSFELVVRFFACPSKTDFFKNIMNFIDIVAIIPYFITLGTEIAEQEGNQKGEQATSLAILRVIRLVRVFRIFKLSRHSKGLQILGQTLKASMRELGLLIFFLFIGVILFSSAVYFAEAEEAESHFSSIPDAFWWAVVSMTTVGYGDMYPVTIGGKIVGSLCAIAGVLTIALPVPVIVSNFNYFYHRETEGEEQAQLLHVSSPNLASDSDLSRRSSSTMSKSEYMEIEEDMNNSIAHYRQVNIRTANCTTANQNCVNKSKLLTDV
How it was run: as §1

Kv1.2 = target: T9, Kv1.2 (Homo sapiens, UniProt P16389); assay: cell-based; assay type: cell-based; details: 100% = no change, <100% = inhibition
T9 construct: host or cells: HEK293 or CHO
How it was run: as §1

Kv1.3 = target: T10, Kv1.3 (Homo sapiens, UniProt P22001); assay: cell-based; assay type: cell-based; details: 100% = no change, <100% = inhibition
T10 construct: host or cells: HEK293 or CHO
T10 sequence (P22001 whole entry): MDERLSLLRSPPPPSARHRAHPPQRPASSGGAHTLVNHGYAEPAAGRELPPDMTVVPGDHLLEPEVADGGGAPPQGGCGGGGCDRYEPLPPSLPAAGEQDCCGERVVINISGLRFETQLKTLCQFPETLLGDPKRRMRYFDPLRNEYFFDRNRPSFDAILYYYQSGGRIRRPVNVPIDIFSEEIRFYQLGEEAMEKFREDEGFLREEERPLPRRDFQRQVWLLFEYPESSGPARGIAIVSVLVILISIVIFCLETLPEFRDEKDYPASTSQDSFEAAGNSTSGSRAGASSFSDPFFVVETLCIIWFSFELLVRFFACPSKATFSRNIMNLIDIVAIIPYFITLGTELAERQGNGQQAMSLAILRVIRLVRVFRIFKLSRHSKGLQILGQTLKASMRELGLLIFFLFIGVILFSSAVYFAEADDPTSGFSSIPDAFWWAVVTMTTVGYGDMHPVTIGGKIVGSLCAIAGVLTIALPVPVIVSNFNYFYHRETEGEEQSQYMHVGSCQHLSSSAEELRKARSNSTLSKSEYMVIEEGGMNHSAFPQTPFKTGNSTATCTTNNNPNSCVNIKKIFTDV
How it was run: as §1

Nav1.7 = target: T11, Nav1.7 (Homo sapiens, UniProt Q15858); assay: cell-based; assay type: cell-based; details: 100% = no change; for Activity of Nav1.7 with peptide, expressed as a percentage of the reference compound: peptide at 0.2 μM; for Activity of Nav1.7 with peptide (percentage of the reference compound): peptide at 20 μM
T11 construct: host or cells: HEK293 or CHO
T11 sequence (Q15858 whole entry): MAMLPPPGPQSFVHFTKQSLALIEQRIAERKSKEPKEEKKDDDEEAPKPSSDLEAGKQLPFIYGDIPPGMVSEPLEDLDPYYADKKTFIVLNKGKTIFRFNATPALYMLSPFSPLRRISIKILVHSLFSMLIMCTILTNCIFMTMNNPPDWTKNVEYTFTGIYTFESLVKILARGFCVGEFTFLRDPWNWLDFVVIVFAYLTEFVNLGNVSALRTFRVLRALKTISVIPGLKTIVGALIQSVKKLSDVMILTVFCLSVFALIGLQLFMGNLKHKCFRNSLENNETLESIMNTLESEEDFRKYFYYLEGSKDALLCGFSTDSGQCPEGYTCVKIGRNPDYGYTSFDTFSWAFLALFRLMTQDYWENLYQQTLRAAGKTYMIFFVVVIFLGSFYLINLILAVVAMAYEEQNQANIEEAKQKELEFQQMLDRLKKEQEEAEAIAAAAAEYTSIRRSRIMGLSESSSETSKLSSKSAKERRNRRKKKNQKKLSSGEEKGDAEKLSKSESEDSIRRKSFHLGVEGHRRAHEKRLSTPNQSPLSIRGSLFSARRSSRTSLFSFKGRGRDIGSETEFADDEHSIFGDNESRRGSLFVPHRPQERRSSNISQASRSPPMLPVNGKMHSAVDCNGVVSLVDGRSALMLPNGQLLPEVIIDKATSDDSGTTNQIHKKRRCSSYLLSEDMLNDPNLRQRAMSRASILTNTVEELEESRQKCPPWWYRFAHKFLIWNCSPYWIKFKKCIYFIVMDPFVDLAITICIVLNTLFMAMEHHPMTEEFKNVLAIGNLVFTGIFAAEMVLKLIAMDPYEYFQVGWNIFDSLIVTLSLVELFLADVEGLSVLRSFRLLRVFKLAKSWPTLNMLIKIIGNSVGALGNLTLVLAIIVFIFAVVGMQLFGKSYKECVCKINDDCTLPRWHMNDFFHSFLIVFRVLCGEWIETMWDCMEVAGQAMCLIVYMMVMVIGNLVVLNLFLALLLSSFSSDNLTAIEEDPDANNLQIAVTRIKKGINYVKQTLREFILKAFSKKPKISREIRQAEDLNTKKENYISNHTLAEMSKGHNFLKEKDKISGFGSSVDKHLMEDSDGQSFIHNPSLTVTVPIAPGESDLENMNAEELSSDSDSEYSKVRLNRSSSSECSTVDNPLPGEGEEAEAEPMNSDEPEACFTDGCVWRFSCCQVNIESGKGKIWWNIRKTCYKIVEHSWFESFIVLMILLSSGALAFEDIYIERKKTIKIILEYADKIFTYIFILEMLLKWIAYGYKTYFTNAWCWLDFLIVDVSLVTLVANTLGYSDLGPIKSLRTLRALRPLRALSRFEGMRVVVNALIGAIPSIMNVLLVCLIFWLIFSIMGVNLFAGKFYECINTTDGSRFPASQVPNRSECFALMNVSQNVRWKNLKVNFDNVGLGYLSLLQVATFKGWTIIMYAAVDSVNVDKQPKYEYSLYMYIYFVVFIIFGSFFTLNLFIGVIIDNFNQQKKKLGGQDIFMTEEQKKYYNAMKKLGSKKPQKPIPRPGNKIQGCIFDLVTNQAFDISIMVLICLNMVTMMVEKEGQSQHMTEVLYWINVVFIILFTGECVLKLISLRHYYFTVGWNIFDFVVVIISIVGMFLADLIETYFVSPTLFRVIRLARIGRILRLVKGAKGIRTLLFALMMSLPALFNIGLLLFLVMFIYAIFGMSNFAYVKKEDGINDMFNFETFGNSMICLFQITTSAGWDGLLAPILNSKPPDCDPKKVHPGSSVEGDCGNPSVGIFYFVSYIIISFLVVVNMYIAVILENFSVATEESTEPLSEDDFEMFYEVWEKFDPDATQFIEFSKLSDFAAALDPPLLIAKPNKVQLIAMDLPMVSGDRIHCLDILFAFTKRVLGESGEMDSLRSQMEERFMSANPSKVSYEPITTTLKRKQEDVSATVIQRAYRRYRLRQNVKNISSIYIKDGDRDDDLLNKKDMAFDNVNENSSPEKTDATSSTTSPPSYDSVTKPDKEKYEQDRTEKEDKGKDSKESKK

NR2A = target: T12, NR2A (Homo sapiens, UniProt Q12879); assay: Ion channel panel (IonWorks Barracuda): NR2A; assay type: cell-based; details: 100% = no change, <100% = inhibition
T12 construct: host or cells: HEK293 or CHO
How it was run: as §1

NR2B = target: T13, NR2B (Homo sapiens, UniProt Q13224); assay: Ion channel panel (IonWorks Barracuda): NR2B; assay type: cell-based; details: 100% = no change, <100% = inhibition
T13 construct: host or cells: HEK293 or CHO
How it was run: as §1

TRPA1 = target: T14, TRPA1 (Homo sapiens, UniProt O75762); assay: Ion channel panel (IonWorks Barracuda): TRPA1; assay type: cell-based; details: 100% = no change, <100% = inhibition
T14 construct: host or cells: HEK293 or CHO
How it was run: as §1

TRPV1 = target: T15, TRPV1 (Homo sapiens, UniProt Q8NER1); assay: Ion channel panel (IonWorks Barracuda): TRPV1; assay type: cell-based; details: 100% = no change, <100% = inhibition
T15 construct: host or cells: HEK293 or CHO
How it was run: as §1

[1] = first of two Nav1.5 columns (probably TP1)
[2] = second of two Nav1.5 columns (probably TP2)
[3] = first of two Nav1.7 columns (probably TP1)
[4] = second of two Nav1.7 columns (probably TP2)

32 (GSQDKCKKVYENYPVSKCQLANQCNYDCKLDKHARSGECFYDEKRNLQCICDYCEY) [compound 32]
Activity of 5HT3a with peptide (percentage of the reference compound) (5HT3a): 105%
Activity of 5HT3a with peptide, expressed as a percentage of the reference compound (5HT3a): 95%
Activity of a3b4 with peptide, expressed as a percentage of the reference compound (α3β4; peptide at 0.2 μM): 100%
Activity of a3b4 with peptide (percentage of the reference compound) (α3β4; peptide at 20 μM): 96%
Activity of a4b2 with peptide, expressed as a percentage of the reference compound (α4β2; peptide at 0.2 μM): 81%
Activity of a4b2 with peptide (percentage of the reference compound) (α4β2; peptide at 20 μM): 86%
Activity of Cav2.1 with peptide, expressed as a percentage of the reference compound (Cav2.1; peptide at 0.2 μM): 98%
Activity of Cav2.1 with peptide (percentage of the reference compound) (Cav2.1; peptide at 20 μM): 92%
Activity of Cav2.2 with peptide, expressed as a percentage of the reference compound (Cav2.2; peptide at 0.2 μM): 102%
Activity of Cav2.2 with peptide (percentage of the reference compound) (Cav2.2; peptide at 20 μM): 101%
Activity of Kv2.1 with peptide, expressed as a percentage of the reference compound (Kv2.1; peptide at 0.2 μM): 92%
Activity of Kv2.1 with peptide (percentage of the reference compound) (Kv2.1; peptide at 20 μM): 93%
Activity of GABA with peptide, expressed as a percentage of the reference compound (GABA; peptide at 0.2 μM): 98%
Activity of GABA with peptide (percentage of the reference compound) (GABA; peptide at 20 μM): 105%
Activity of Nav1.5 with peptide, expressed as a percentage of the reference compound (Nav1.5; [1]): 108%
Activity of Nav1.5 with peptide, expressed as a percentage of the reference compound (Nav1.5; [2]): 101%
Activity of Nav1.5 with peptide (percentage of the reference compound) (Nav1.5; [1]): 90%
Activity of Nav1.5 with peptide (percentage of the reference compound) (Nav1.5; [2]): 90%
Activity of hERG with peptide, expressed as a percentage of the reference compound (hERG; peptide at 0.2 μM): 90%
Activity of hERG with peptide (percentage of the reference compound) (hERG; peptide at 20 μM): 65%
Activity of Kir2.1 with peptide, expressed as a percentage of the reference compound (Kir2.1; peptide at 0.2 μM): 95%
Activity of Kir2.1 with peptide (percentage of the reference compound) (Kir2.1; peptide at 20 μM): 79%
Activity of Kv1.1 with peptide, expressed as a percentage of the reference compound (Kv1.1; peptide at 0.2 μM): 76%
Activity of Kv1.1 with peptide (percentage of the reference compound) (Kv1.1; peptide at 20 μM): 114%
Activity of Kv1.2 with peptide, expressed as a percentage of the reference compound (Kv1.2; peptide at 0.2 μM): 89%
Activity of Kv1.2 with peptide (percentage of the reference compound) (Kv1.2; peptide at 20 μM): 112%
Activity of Kv1.3 with peptide, expressed as a percentage of the reference compound (Kv1.3; peptide at 0.2 μM): 98%
Activity of Kv1.3 with peptide (percentage of the reference compound) (Kv1.3; peptide at 20 μM): 98%
Activity of Nav1.7 with peptide, expressed as a percentage of the reference compound (Nav1.7; [3]): 96%
Activity of Nav1.7 with peptide, expressed as a percentage of the reference compound (Nav1.7; [4]): 97%
Activity of Nav1.7 with peptide (percentage of the reference compound) (Nav1.7; [3]): 87%
Activity of Nav1.7 with peptide (percentage of the reference compound) (Nav1.7; [4]): 61%
Activity of NR2A with peptide, expressed as a percentage of the reference compound (NR2A; peptide at 0.2 μM): 95%
Activity of NR2A with peptide (percentage of the reference compound) (NR2A; peptide at 20 μM): 110%
Activity of NR2B with peptide, expressed as a percentage of the reference compound (NR2B; peptide at 0.2 μM): 76%
Activity of NR2B with peptide (percentage of the reference compound) (NR2B; peptide at 20 μM): 106%
Activity of TRPA1 with peptide, expressed as a percentage of the reference compound (TRPA1; peptide at 0.2 μM): 130%
Activity of TRPA1 with peptide (percentage of the reference compound) (TRPA1; peptide at 20 μM): 108%
Activity of TRPV1 with peptide, expressed as a percentage of the reference compound (TRPV1; peptide at 0.2 μM): 99%
Activity of TRPV1 with peptide (percentage of the reference compound) (TRPV1; peptide at 20 μM): 84%
